In article PMC2635961:

Target: each recombinant exocyst subunit
Experiment: pull-down; MBP or MBP-tagged proteins immobilised on amylose resin; equimolar purified Sec10(145–827) (1 µM) added; 10 mM HEPES pH 7, 100 mM NaCl, 0.1% NP-40, 1 mM DTT; 1 h at 4°C; three washes; Western blot with α-His5 and α-MBP

percent bound: 10 to 20%
B1: Sec10(145–827) (domain or fragment)
chain: GDKLETAIKKKQNYIQSVELIRRYNDFYSMGKSDIVEQLRLSKNWKLNLKSVKLMKNLLILSSKLETSSIPKTINTKLVIEKYSEMMENELLENFNSAYRENNFTKLNEIAIILNNFNGGVNVIQSFINQHDYFIDTKQIDLENEFENVFIKNVKFKEQLIDFENHSVIIETSMQNLINDVETVIKNESKIVKRVFEEKATHVIQLFIQRVFAQKIEPRFEVLLRNSLSISNLAYVRILHGLFTLFGKFTKSLIDYFQLLEIDDSNQILSTTLEQCFADLFSHYLYDRSKYFGIEKRSLEAILVDMTSKFTVNYDKEINKRVLLDKYKEKLSTNVDAFMHSPRGNTHSRQDSTSRSKLSQFNSFLKTHLDKDHLSLNRTNTLSDSFNNSSSSTQYDVANNSSSLVNSSFTASDIDNSPNSPANYSLNDVDSMLKCVVESTARVMELIPNKAHLYILEILKIMFLGIVDSYMEIALEVAYWKICKVDINKTAGVVNLNFLKFISMSTEILDLLSISIKSIFLPLLNNSPEIKAQIIEMTNSQIQKMEILINIILQETITVISTKFSAILCKQKKKDFVPKSQELLDQDTLPAIEIVNILNLIFEQSSKFLKGKNLQTFLTLIGEELYGLLLSHYSHFQVNSIGGVVVTKDIIGYQTAIEDWGVASLIDKFATLRELANLFTVQP
